Molecular target: glucagon receptor on CHO-GCGR cells (human) (UniProt P47871)
Assay: flow cytometry on live cells
Conditions: D-PBS pH 7.4, 5 mM MgCl2, 4.5 g/L glucose, 0.1 mg/mL yeast tRNA, 1 mg/L BSA; 4 C, 1 h (45 min in Results for Kd)

Chain of glucagon receptor on CHO-GCGR cells (human) (P47871 26-477): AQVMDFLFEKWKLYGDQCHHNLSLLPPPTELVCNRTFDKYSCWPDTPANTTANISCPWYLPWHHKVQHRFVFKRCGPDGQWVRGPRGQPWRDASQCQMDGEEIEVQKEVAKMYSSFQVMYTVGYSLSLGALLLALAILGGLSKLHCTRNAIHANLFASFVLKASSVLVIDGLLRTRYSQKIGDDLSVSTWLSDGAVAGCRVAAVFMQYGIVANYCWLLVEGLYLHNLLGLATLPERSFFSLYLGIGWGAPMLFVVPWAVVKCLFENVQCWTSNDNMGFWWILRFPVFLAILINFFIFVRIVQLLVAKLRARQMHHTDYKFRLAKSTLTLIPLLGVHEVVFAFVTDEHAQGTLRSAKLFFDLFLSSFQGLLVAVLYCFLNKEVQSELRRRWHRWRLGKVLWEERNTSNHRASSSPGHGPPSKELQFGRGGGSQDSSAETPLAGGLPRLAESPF

For “ATCCAGAGTGACGCAGCAGATAAGTAGGTATCCGTTTGAAAAACTTTTCTGACCGTCCGACTATGGACACGGTGGCTTAGT [GR-3]”, the Kd was 52.7 nM.
